The data set concerns the molecule itself. The data set can be described thus: non-reducing LDS-PAGE of proteoliposomes.

The values below come from paper PMC7385938 (Cell Stress & Chaperones, 2020).

B1: HSPA1-N (N-terminal end domain of HSPA1) (domain or fragment)
chain: not shown
On to B1, for which the binding result is “binds”.

B2: HSPA5-FL (full-length human HSPA5 without the leading signal peptide for ER translocation) (natural protein)
chain: not shown
Regarding B2, the binding result is “binds”.

B3: HSPA5-N (N-terminal end domain of HSPA5) (domain or fragment)
chain: not shown
As a reminder, the stoichiometry N is a count of units in the complex or per binding partner. Regarding B3, the “stoichiometry N” value turned out to be 2.
